{
  "source": "patent US20220204580A1",
  "about": "(AstraZeneca / MedImmune, published 2022)",
  "binders": {"B1": {"name": "Peptide 34 (SEQ ID NO: 34) (peptide)", "peptide": "K([γGlu-C18 diacid])KCNTATCATQRLA[Dab]FLVHSSNNFGPILPPTEVGSNTY-NH2", "modifications": "disulfide 3-8; N-terminus assumed", "SMILES": "CC[C@H](C)[C@H](NC(=O)[C@@H]1CCCN1C(=O)CNC(=O)[C@H](Cc1ccccc1)NC(=O)[C@H](CC(N)=O)NC(=O)[C@H](CC(N)=O)NC(=O)[C@H](CO)NC(=O)[C@H](CO)NC(=O)[C@H](Cc1c[nH]cn1)NC(=O)[C@@H](NC(=O)[C@H](CC(C)C)NC(=O)[C@H](Cc1ccccc1)NC(=O)[C@H](CCN)NC(=O)[C@H](C)NC(=O)[C@H](CC(C)C)NC(=O)[C@H](CCCNC(=N)N)NC(=O)[C@H](CCC(N)=O)NC(=O)[C@@H](NC(=O)[C@H](C)NC(=O)[C@@H]1CSSC[C@H](NC(=O)[C@H](CCCCN)NC(=O)[C@@H](N)CCCCNC(=O)CC[C@H](NC(=O)CCCCCCCCCCCCCCCCC(=O)O)C(=O)O)C(=O)N[C@@H](CC(N)=O)C(=O)N[C@@H]([C@@H](C)O)C(=O)N[C@@H](C)C(=O)N[C@@H]([C@@H](C)O)C(=O)N1)[C@@H](C)O)C(C)C)C(=O)N[C@@H](CC(C)C)C(=O)N1CCC[C@H]1C(=O)N1CCC[C@H]1C(=O)N[C@H](C(=O)N[C@@H](CCC(=O)O)C(=O)N[C@H](C(=O)NCC(=O)N[C@@H](CO)C(=O)N[C@@H](CC(N)=O)C(=O)N[C@H](C(=O)N[C@@H](Cc1ccc(O)cc1)C(N)=O)[C@@H](C)O)C(C)C)[C@@H](C)O"}},
  "key": {"[1]": {"target": "T1, human calcitonin receptor (human, UniProt P30988 25-474)", "T1 sequence (looked up)": "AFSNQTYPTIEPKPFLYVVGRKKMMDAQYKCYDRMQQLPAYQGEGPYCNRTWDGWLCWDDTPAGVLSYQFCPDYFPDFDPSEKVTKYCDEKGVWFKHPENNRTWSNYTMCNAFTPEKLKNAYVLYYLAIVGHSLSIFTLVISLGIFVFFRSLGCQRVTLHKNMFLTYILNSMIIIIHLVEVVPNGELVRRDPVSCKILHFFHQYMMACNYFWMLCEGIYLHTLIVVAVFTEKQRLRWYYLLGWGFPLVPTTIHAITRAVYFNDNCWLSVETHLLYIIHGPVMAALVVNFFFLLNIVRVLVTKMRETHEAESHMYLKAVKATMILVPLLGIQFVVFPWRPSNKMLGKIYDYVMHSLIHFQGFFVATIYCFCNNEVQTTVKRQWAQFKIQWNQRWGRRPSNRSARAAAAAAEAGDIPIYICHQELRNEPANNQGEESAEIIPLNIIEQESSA", "assay": "cell-based or functional assay"}, "[2]": {"target": "T2, human amylin receptor (calcitonin receptor co-expressed with receptor activity modifying protein, RAMP3) (human, UniProt P30988 25-474; O60896 24-148)", "T2 sequence (looked up) 1": "T1 sequence (looked up)", "T2 sequence (looked up) 2": "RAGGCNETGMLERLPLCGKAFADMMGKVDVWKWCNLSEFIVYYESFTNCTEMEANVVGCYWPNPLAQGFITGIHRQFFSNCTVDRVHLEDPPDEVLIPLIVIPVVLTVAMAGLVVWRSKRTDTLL", "assay": "cell-based or functional assay"}},
  "note": "Numbered stars: 1 amine (or outer) side, 2 acyl side, 3 side chain; on linkers, the order of the positions; unused ones are H or OH. Bridge positions count the residues as written; N and C are the ends. Square brackets hold non-standard residues; d marks the D form. Side chains are listed from the residue outwards. Ends that are not written are not given here. * marks the point of attachment. C18 diacid = O=C(O)CCCCCCCCCCCCCCCCC(=O)*; γGlu = O=C(O)[C@H](CCC(=O)[*:2])N[*:1]; Dab = NCC[C@H](N)C(=O)O",
  "data": [
    {"binder": "B1", "values": [
      {"measurement": "EC50 (cAMP production)", "setting": "[1]", "value": 17.7, "unit": "nM"},
      {"measurement": "EC50 (cAMP production)", "setting": "[2]", "value": 0.877, "unit": "nM"},
      {"measurement": "Ratio (EC50 hCTR / EC50 hAMYR3)", "setting": "[2]", "value": 20}
    ]}
  ]
}
